Data as given in patent US12240900 (MEDICOVESTOR, dated 2025).
One block for each binder: values may come before it.

Assays:
[1] = molecular target: T1, human FRalpha expressed on cells (transfected HEK293 cells; SKOV3 human ovarian cancer cells) (human, UniProt P15328 25-234); experiment: flow cytometry on HEK293 cells transfected to express FRalpha
T1 construct: whole, on cells; also called folate receptor alpha
Experimental: (§1) The affinity of each antibody was then assessed by flow cytometry. Briefly, HEK293 cells transfected to express FRalpha were washed with fluorescence-activated cell sorting (FACS) buffer, to which the IgGs were added at varying concentrations and incubated at 4 degrees Celsius for 60 minutes. The cells were then centrifuged and washed twice in FACS buffer. A phycoerythrin-labelled anti-human IgG, Fcgamma antibody (109-115-098; Jackson ImmunoResearch, Pennsylvania, United States) was then added to the cells at a 1:200 dilution and incubated at 4 degrees Celsius for 30 minutes. The cells were then washed, resuspended in FACS buffer, and counted by flow cytometry. Results are depicted in FIG. 4.

[2] = molecular target: T2, fusion protein containing the extracellular domain of human FRalpha and a polyhistidine tag (human, UniProt P15328 25-233); experiment: ELISA, human FRalpha ECD-His coated
T2 construct: extracellular domain; Coated on ELISA plates; also called human FRalpha extracellular domain; not shown: polyhistidine tag
T2 sequence (P15328 25-233 limits assumed): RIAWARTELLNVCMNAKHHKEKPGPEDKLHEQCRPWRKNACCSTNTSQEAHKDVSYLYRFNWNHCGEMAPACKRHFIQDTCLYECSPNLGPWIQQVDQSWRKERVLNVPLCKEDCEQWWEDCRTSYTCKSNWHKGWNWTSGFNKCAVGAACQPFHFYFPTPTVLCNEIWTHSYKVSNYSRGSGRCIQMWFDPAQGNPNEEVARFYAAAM
Experimental: (§2) The affinity of each IgG1 for FRalpha was confirmed by ELISA. Briefly, a fusion protein containing the extracellular domain of human FRalpha and a polyhistidine tag was used to coat ELISA plates, which were washed three times with phosphate-buffered saline (PBS) containing 0.1 percent polysorbate 20 (PBST), then blocked with PBS containing 5 percent powdered milk (PBSM), and then washed three more times with PBST. Wells were then incubated with antibodies at varying concentrations for 60 minutes at room temperature in 1 percent PBSM. Wells were then washed three times with PBST, after which the secondary, horseradish-peroxidase-conjugated antibody anti-human-IgG-Fc-HRP (ab97225, Abcam, United Kingdom) was added at a 1:8000 dilution in 1 percent PBSM for 50 minutes at room temperature. The wells were then washed six times with PBST, after which 3,3', 5,5"-tetramethylbenzidine (TMB) was added. The reaction was stopped with 2 molar sulfuric acid, and the TMB diamine product was quantified at 450 nanometers in a plate reader. Results are depicted in FIG. 2.

[3] = molecular target: T3, fusion protein containing the extracellular domain of cynomolgus FRalpha and a polyhistidine tag (cynomolgus, UniProt A0A2K5U044 25-233); experiment: ELISA, cynomolgus FRalpha ECD-His coated
T3 construct: extracellular domain; Coated on ELISA plates; also called cynomolgus FRalpha extracellular domain; not shown: polyhistidine tag
T3 sequence (A0A2K5U044 entry or part of it): as the sequence (P15328 25-233 limits assumed) above, with I2T, W4R, R37K, A146P, H171Y counted along it
Experimental: as §2
The ELISA of the preceding paragraph was repeated with a fusion protein containing the extracellular domain of cynomolgus FRalpha and a polyhistidine tag. Results are depicted in FIG. 3.

[4] = molecular target: T1, human FRalpha expressed on cells …; experiment: flow cytometry on SKOV3 human ovarian cancer cells that express FRalpha
Experimental: as §1
The flow cytometry experiment of the preceding paragraph was repeated with a human ovarian cancer cell line that expresses FRalpha, SKOV3. Results are depicted in FIGS. 5A and 5B. […] The antibody according to SEQ ID NO: 3-12 was then designated the lead antibody for further development.

T1 sequence (P15328 25-234): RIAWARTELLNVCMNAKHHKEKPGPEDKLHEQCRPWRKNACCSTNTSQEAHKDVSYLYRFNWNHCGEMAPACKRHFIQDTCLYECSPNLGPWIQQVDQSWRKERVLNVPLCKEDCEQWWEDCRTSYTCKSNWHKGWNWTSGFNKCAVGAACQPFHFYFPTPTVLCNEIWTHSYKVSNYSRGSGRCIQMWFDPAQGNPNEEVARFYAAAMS

EC50 [1]: ~4 nM
EC50 [2]: ~0.12 nM
EC50 [3]: ~0.16 nM
B1: Mirvetuximab (antibody, V domains shown)
VH: QVQLVQSGAEVVKPGASVKISCKASGYTFTGYFMNWVKQSPGQSLEWIGRIHPYDGDTFYNQKFQGKATLTVDKSSNTAHMELLSLTSEDFAVYYCTRYDGSRAMDYWGQGTTVTVSS
VL: DIVLTQSPLSLAVSLGQPAIISCKASQSVSFAGTSLMHWYHQKPGQQPRLLIYRASNLEAGVPDRFSGSGSKTDFTLTISPVEAEDAATYYCQQSREYPYTFGGGTKLEIK

EC50 [1]: ~5 nM
EC50 [2]: ~0.05 nM
EC50 [3]: ~0.06 nM
EC50 [4]: < 1 nM
B2: lead fully-human anti-FRalpha IgG1 antibody (antibody according to SEQ ID NO: 3-12) (antibody, V domains shown)
VH: EVQLLESGGGLVKPGGSLRLSCAASGFTFSSYTMNWVRQAPGKGLEWVSSISSGGGYIYYADSVKDRFTISRDNAKNSLYLQMNSLRAEDTAVYYCAKGDTIMIISAWGQGTTVTVSS
VL: DIQLTQSPSTLSASVGDRVTITCRASQSISSWLAWHQQKPGKAPKLLIYAASSLQNGVPSRFSGSGFGTDFTLTISSLQPEDFATYYCQQASSFPLTFGGGTKVEIKR
notes: Human IgG1 / kappa; also called lead antibody; the anti-FRalpha IgG of this disclosure
